We go through 2 molecules from US20230265175A1 (Merck Sharp & Dohme, published 2023).

Test [1] has as its target recombinant phosphorylated tau protein monomer (35 AWM). As to the kind of experiment: competitive ELISA, 35 AWM (1 ng); free tau-pS413 detected with biotinylated Ta1505-mIgG2a (competitor).
Test [2] deals with T1, tau species in African Green Monkey (AGM) CSF (African Green Monkey).
T1 construct: also called Fresh African Green Monkey (AGM) CSF
Description: competitive ELISA, fresh AGM CSF (75 µl of neat CSF); competitor biotinylated Ta1505-mIgG2a. The procedure:
Binding affinities of various anti-tau-pS413 antibodies described herein for endogenous tau species were determined in brain homogenates and CSF samples from AD patients and preclinical models. Briefly, samples were pre-incubated with different concentrations of various anti-tau-pS413 antibodies, or respective isotype controls. Following a one-hour pre-incubation period, the antigen-antibody (Ag-Ab) mixture was added to plates pre-coated with a total tau capture antibody (Innotest ELISA kit).
Tissue homogenates were prepared using 1% sarkosyl buffer with several high-speed centrifugation steps to enrich for insoluble proteins including tau.
In general terms: In an ELISA, binding on a coated surface is turned into a signal by an enzyme label.

B1: HmzTa1505-hIgG4-S228P (antibody)
heavy: not shown
light: DIVMTQSPLSLPVTLGEPASISCRSSQNIVHSNANTYLEWYLQKPGQSPQLLIYTVSNRFSGVPDRFSGSGSGTDFTLKISRVEAEDLGVYYCFQGSHLPLTFGGGTKVEIKRTVAAPSVFIFPPSDEQLKSGTASVVCLLNNFYPREAKVQWKVDNALQSGNSQESVTEQDSKDSTYSLSSTLTLSKADYEKHKVYACEVTHQGLSSPVTKSFNRGEC
Broadly, the EC50 is the concentration that produces a half-maximal response. In the case of B1, the EC50 worked out at 6.73 nM in test [1] and 2.08 nM in test [2].

B2: V8-AFM-hIgG1-LALA-YTE (antibody)
heavy: EVQLVESGGGLVQPGGSLRLSCAASGFTFSSFALNWVRQAPGKGLEWVGHIRSETNNYVTFYAASVKGRFTVSRDDSQNTAYLQMNSLKTEDTATYYCVRRGPRDSWFGYWGQGTLVTVSSASTKGPSVFPLAPSSKSTSGGTAALGCLVKDYFPEPVTVSWNSGALTSGVHTFPAVLQSSGLYSLSSVVTVPSSSLGTQTYICNVNHKPSNTKVDKKVEPKSCDKTHTCPPCPAPEAAGGPSVFLFPPKPKDTLYITREPEVTCVVVDVSHEDPEVKFNWYVDGVEVHNAKTKPREEQYNSTYRVVSVLTVLHQDWLNGKEYKCKVSNKALPAPIEKTISKAKGQPREPQVYTLPPSRDELTKNQVSLTCLVKGFYPSDIAVEWESNGQPENNYKTTPPVLDSDGSFFLYSKLTVDKSRWQQGNVFSCSVMHEALHNHYTQKSLSLSPGK
light: DIVMTQSPLSLPVTLGEPASISCRSSQKIVHRNANTYLEWYLQKPGQSPQLLIYTVSNRFSGVPDRFSGSGSGTDFTLKISRVEAEDLGVYYCFQGSYLPLTFGGGTKVEIKRTVAAPSVFIFPPSDEQLKSGTASVVCLLNNFYPREAKVQWKVDNALQSGNSQESVTEQDSKDSTYSLSSTLTLSKADYEKHKVYACEVTHQGLSSPVTKSFNRGEC
notes: also called V8-AFM-IgG1-LALA-YTE
B2: the EC50 was determined as 0.055 nM in test [1] and 0.008 nM in test [2].
